Source: patent US20210361776A1 (Seagen, published 2021)
Read-outs that look alike come from different tables or passages of the source.

How the values were obtained:
[1] = molecular target: T1, human Glypican 3 (GPC3) on GPC3-positive cells (human, UniProt P51654 25-554); assay: competition with AlexaFluor-488 labeled mGPC3-1 on GPC3-positive cells, flow cytometry
T1 construct: whole, on cells; the methods say only 'GPC3-positive cells'; also called hGPC3
Procedure: (§1) Cells were centrifuged, washed 3 times with PBS, and resuspended in 125 μL of a PBS+2% FBS solution. […] The EC50 was extrapolated by fitting the data to a sigmoidal dose-response curve with variable slope.

[2] = molecular target: T1, human Glypican 3 (GPC3) on …; assay: as above; remark: listed apart in the source
Procedure: as §1

[3] = molecular target: T2, Human GPC3 (hGPC3 GP3-H5258, AcroBiosystems), biotinylated (human, UniProt P51654 25-559, biotinylated with Pierce NHS-LC-LC-Biotin at 1.5:1 biotin/protein ratio); assay: BLI/SPR steady state: 600 second maximum response against concentration, half maximal binding (FIG. 6); binding affinity from FIG. 6, not the bivalent kinetic fit
T2 construct: Bought protein; also called immobilized hGPC3
T2 sequence (P51654 25-559 limits assumed): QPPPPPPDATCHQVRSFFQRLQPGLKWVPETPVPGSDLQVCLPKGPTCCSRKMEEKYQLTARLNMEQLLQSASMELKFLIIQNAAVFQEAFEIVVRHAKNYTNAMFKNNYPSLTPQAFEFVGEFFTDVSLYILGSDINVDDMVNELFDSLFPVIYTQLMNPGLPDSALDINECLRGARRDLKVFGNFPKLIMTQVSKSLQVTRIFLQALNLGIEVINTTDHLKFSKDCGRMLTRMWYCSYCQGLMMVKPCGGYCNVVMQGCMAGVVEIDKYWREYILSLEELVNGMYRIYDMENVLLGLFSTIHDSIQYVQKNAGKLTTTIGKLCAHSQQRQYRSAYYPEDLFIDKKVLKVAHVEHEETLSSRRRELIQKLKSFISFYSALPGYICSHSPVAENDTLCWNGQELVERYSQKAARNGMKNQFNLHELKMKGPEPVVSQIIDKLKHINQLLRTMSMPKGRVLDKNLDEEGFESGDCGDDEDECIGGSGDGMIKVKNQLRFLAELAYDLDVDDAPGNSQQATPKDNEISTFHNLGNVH
Procedure: (Left) Multiple sensorgrams represent several concentrations (400, 160, 64, 25.6, 10.2, 4.1, and 1.64 nM) of hGPC3-1ec associating with immobilized hGPC3. (Right) The KD was determined by plotting the 600 second maximum response for each concentration and was defined by half maximal binding.
(§2) Human GPC3 (hGPC3 GP3-H5258) was purchased from AcroBiosystems and biotinylated using Pierce NHS-LC-LC-Biotin at a molar ratio of 1.5:1 biotin/protein ratio. Biolayer interferometry (BLI) was performed on an Octet Red 384 system (ForteBio) with High Precision Streptavidin (SAX) Biosensors and GPC3 as the probe using hGPC3-1ec as the analyte.

[4] = molecular target: T2, Human GPC3 (hGPC3 GP3-H5258, …); assay: BLI (Octet Red 384), biotinylated hGPC3 on SAX biosensors, hGPC3-1ec as analyte, bivalent binding, 1:1 fit, dissociation 1800 sec; bivalent binding, kinetic 1:1 fit, disassociation of 1800 sec
Procedure: as §2

[5] = molecular target: T2, Human GPC3 (hGPC3 GP3-H5258, …); assay: BLI (Octet Red 384), biotinylated hGPC3 on SAX biosensors, hGPC3-1ec as analyte, bivalent binding, 1:1 fit; bivalent binding, kinetic 1:1 fit (kdiss/kon)
Procedure: as §2

[6] = molecular target: T2, Human GPC3 (hGPC3 GP3-H5258, …); assay: BLI (Octet Red 384), biotinylated hGPC3 on SAX biosensors, hGPC3-1ec as analyte, bivalent binding, 1:1 fit, association 600 sec; bivalent binding, kinetic 1:1 fit, association of 600 sec
Procedure: as §2

T1 sequence (P51654 25-554 limits assumed): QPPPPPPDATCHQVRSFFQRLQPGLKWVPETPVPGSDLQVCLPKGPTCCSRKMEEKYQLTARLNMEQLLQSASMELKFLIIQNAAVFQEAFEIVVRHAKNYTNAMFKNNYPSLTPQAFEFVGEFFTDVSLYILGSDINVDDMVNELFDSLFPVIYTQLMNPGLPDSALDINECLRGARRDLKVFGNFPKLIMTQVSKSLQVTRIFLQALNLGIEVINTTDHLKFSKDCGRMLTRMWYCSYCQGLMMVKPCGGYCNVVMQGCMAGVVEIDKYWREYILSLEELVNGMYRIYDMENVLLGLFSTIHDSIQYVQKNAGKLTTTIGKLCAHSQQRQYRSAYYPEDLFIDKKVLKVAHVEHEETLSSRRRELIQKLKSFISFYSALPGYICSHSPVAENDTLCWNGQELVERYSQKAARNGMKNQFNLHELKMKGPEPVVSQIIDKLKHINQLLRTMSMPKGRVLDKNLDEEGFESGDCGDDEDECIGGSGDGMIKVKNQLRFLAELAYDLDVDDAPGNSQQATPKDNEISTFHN

Row | Binder | EC50 [1] [nM] | also measured
1 | hGPC3-1 HCLB (antibody, V domains shown, Kabat positions) VH: EVQLVQSGAEVKKPGATVKISCKASGYTFTDYEMHWVQQAPGKGLEWIGGIDPETGGTAYNQKFKGRATLTADKSTDTAYMELSSLRSEDTAVYYCGRYYSFAYWGQGTLVTVSS VL: DVVMTQSPLSLPVTLGQPASISCRSSQSIVHSNGNTYLQWFQQRPGQSPRLLIYKVSNRFSGVPDRFSGSGSGTDFTLKISRVEAEDVGVYYCFQVSHVPYTFGQGTKLEIK | 18 | –
2 | hGPC3-1 HALB (antibody, V domains shown, Kabat position) VH: QVQLVQSGAEVKKPGASVKVSCKASGYTFTDYEMHWVRQAPGQGLEWIGGIDPETGGTAYNQKFKGRATLTADTSTSTAYMELRSLRSDDTAVYYCARYYSFAYWGQGTLVTVSS VL: DVVMTQSPLSLPVTLGQPASISCRSSQSIVHSNGNTYLQWFQQRPGQSPRLLIYKVSNRFSGVPDRFSGSGSGTDFTLKISRVEAEDVGVYYCFQVSHVPYTFGQGTKLEIK | 91 | –
3 | hGPC3-1 HBLA (antibody, V domains shown, Kabat positions) VH: EVQLVQSGAEVKKPGATVKISCKVSGYTFTDYEMHWVQQAPGKGLEWMGGIDPETGGTAYNQKFKGRVTLTADKSTDTAYMELSSLRSEDTAVYYCGRYYSFAYWGQGTLVTVSS VL: DVVMTQSPLSLPVTLGQPASISCRSSQSIVHSNGNTYLQWFQQRPGQSPRRLIYKVSNRFSGVPDRFSGSGSGTDFTLKISRVEAEDVGVYYCFQVSHVPYTFGQGTKLEIK | 203 | –
4 | hGPC3-1 HBLB (antibody, V domains shown, Kabat position) VH: EVQLVQSGAEVKKPGATVKISCKVSGYTFTDYEMHWVQQAPGKGLEWMGGIDPETGGTAYNQKFKGRVTLTADKSTDTAYMELSSLRSEDTAVYYCGRYYSFAYWGQGTLVTVSS VL: DVVMTQSPLSLPVTLGQPASISCRSSQSIVHSNGNTYLQWFQQRPGQSPRLLIYKVSNRFSGVPDRFSGSGSGTDFTLKISRVEAEDVGVYYCFQVSHVPYTFGQGTKLEIK | 14 | EC50 [2]: 3 nM
5 | hGPC3-1 HBLB-Q (antibody, V domains shown, Kabat positions) VH: EVQLVQSGAEVKKPGATVKISCKVSGYTFTDYEMHWVQQAPGKGLEWMGGIDPETGGTAYNQKFKGRVTLTADKSTDTAYMELSSLRSEDTAVYYCGRYYSFAYWGQGTLVTVSS VL: DVVMTQSPLSLPVTLGQPASISCRSSQSIVHSQGNTYLQWFQQRPGQSPRLLIYKVSNRFSGVPDRFSGSGSGTDFTLKISRVEAEDVGVYYCFQVSHVPYTFGQGTKLEIK | – | EC50 [2]: 7 nM
6 | hGPC3-1 HBLB-V (antibody, V domains shown, Kabat position) VH: EVQLVQSGAEVKKPGATVKISCKVSGYTFTDYEMHWVQQAPGKGLEWMGGIDPETGGTAYNQKFKGRVTLTADKSTDTAYMELSSLRSEDTAVYYCGRYYSFAYWGQGTLVTVSS VL: DVVMTQSPLSLPVTLGQPASISCRSSQSIVHSNVNTYLQWFQQRPGQSPRLLIYKVSNRFSGVPDRFSGSGSGTDFTLKISRVEAEDVGVYYCFQVSHVPYTFGQGTKLEIK | – | EC50 [2]: 4 nM
7 | hGPC3-1 HBLC (antibody, V domains shown, Kabat positions) VH: EVQLVQSGAEVKKPGATVKISCKVSGYTFTDYEMHWVQQAPGKGLEWMGGIDPETGGTAYNQKFKGRVTLTADKSTDTAYMELSSLRSEDTAVYYCGRYYSFAYWGQGTLVTVSS VL: DVVMTQSPLSLPVTLGQPASISCRSSQSIVHSNGNTYLQWFQQRPGQSPKLLIYKVSNRFSGVPDRFSGSGSGTDFTLKISRVEAEDVGVYYCFQVSHVPYTFGQGTKLVMK | 25 | –
8 | hGPC3-1 HBLD (antibody, V domains shown, Kabat positions) VH: EVQLVQSGAEVKKPGATVKISCKVSGYTFTDYEMHWVQQAPGKGLEWMGGIDPETGGTAYNQKFKGRVTLTADKSTDTAYMELSSLRSEDTAVYYCGRYYSFAYWGQGTLVTVSS VL: DVVMTQSPLSLPVTLGQPASISCRSSQSIVHSDGNTYLQWFQQRPGQSPRLLIYKVSNRFSGVPDRFSGSGSGTDFTLKISRVEAEDVGVYYCFQVSHVPYTFGQGTKLEIK | – | EC50 [2]: 74 nM
9 | hGPC3-1 HBLE (antibody, V domains shown, Only variable regions are tied to the antibody; also called lead humanized GPC3-1 antibody) VH: EVQLVQSGAEVKKPGATVKISCKVSGYTFTDYEMHWVQQAPGKGLEWMGGIDPETGGTAYNQKFKGRVTLTADKSTDTAYMELSSLRSEDTAVYYCGRYYSFAYWGQGTLVTVSS VL: DVVMTQSPLSLPVTLGQPASISCRSSQSIVHSNANTYLQWFQQRPGQSPRLLIYKVSNRFSGVPDRFSGSGSGTDFTLKISRVEAEDVGVYYCFQVSHVPYTFGQGTKLEIK | – | EC50 [2]: 3 nM
10 | hGPC3-1 HCLA (antibody, V domains shown, Kabat positions) VH: EVQLVQSGAEVKKPGATVKISCKASGYTFTDYEMHWVQQAPGKGLEWIGGIDPETGGTAYNQKFKGRATLTADKSTDTAYMELSSLRSEDTAVYYCGRYYSFAYWGQGTLVTVSS VL: DVVMTQSPLSLPVTLGQPASISCRSSQSIVHSNGNTYLQWFQQRPGQSPRRLIYKVSNRFSGVPDRFSGSGSGTDFTLKISRVEAEDVGVYYCFQVSHVPYTFGQGTKLEIK | 76 | –
11 | hGPC3-1 HCLC (antibody, V domains shown, Kabat positions) VH: EVQLVQSGAEVKKPGATVKISCKASGYTFTDYEMHWVQQAPGKGLEWIGGIDPETGGTAYNQKFKGRATLTADKSTDTAYMELSSLRSEDTAVYYCGRYYSFAYWGQGTLVTVSS VL: DVVMTQSPLSLPVTLGQPASISCRSSQSIVHSNGNTYLQWFQQRPGQSPKLLIYKVSNRFSGVPDRFSGSGSGTDFTLKISRVEAEDVGVYYCFQVSHVPYTFGQGTKLVMK | 19 | –
12 | hGPC3-1 HDLA (antibody, V domains shown, Kabat positions) VH: EVQLVQSGAEVKKPGATVKISCKASGYTFTDYEMHWVKQAPGKGLEWIGGIDPETGGTAYNQKFKGKATLTADKSTDTAYMELSSLRSEDTAVYYCGRYYSFAYWGQGTLVTVSS VL: DVVMTQSPLSLPVTLGQPASISCRSSQSIVHSNGNTYLQWFQQRPGQSPRRLIYKVSNRFSGVPDRFSGSGSGTDFTLKISRVEAEDVGVYYCFQVSHVPYTFGQGTKLEIK | 149 | –
13 | hGPC3-1 HDLB (antibody, V domains shown, Kabat positions) VH: EVQLVQSGAEVKKPGATVKISCKASGYTFTDYEMHWVKQAPGKGLEWIGGIDPETGGTAYNQKFKGKATLTADKSTDTAYMELSSLRSEDTAVYYCGRYYSFAYWGQGTLVTVSS VL: DVVMTQSPLSLPVTLGQPASISCRSSQSIVHSNGNTYLQWFQQRPGQSPRLLIYKVSNRFSGVPDRFSGSGSGTDFTLKISRVEAEDVGVYYCFQVSHVPYTFGQGTKLEIK | 10 | –
14 | hGPC3-1 HDLC (antibody, V domains shown, Kabat positions) VH: EVQLVQSGAEVKKPGATVKISCKASGYTFTDYEMHWVKQAPGKGLEWIGGIDPETGGTAYNQKFKGKATLTADKSTDTAYMELSSLRSEDTAVYYCGRYYSFAYWGQGTLVTVSS VL: DVVMTQSPLSLPVTLGQPASISCRSSQSIVHSNGNTYLQWFQQRPGQSPKLLIYKVSNRFSGVPDRFSGSGSGTDFTLKISRVEAEDVGVYYCFQVSHVPYTFGQGTKLVMK | 13 | –
15 | murine GPC3-1 antibody (antibody, V domains shown, Murine hybridoma IgG; also called mGPC3-1) VH: QVQLQQSGAELVRPGASVTLSCKASGYTFTDYEMHWVKQTPVHGLEWIGGIDPETGGTAYNQKFKGKATLTADKSSSTAYMDLRSLTSEDSAVYYCGRYYSFAYWGQGTLVTVSA VL: DVLMTQTPLSLPLSLGDQASISCRSSQSIVHSNGNTYLQWFLQKPGQSPKLLIYKVSNRFSGVPDRFSGSGSGTDFTLKIGRVEAEDLGVYYCFQVSHVPYTFGGGTKLVMK | 9 | –
16 | hGPC3-1ec (HBLE) (antibody, V domains shown, HBLE variable regions on IgG1 with a cysteine substitution at position 239 of the heavy chain (S239C, EU index); 'ec' marks this; Tested unconjugated; also called humanized GPC3-1ec) VH: EVQLVQSGAEVKKPGATVKISCKVSGYTFTDYEMHWVQQAPGKGLEWMGGIDPETGGTAYNQKFKGRVTLTADKSTDTAYMELSSLRSEDTAVYYCGRYYSFAYWGQGTLVTVSS VL: DVVMTQSPLSLPVTLGQPASISCRSSQSIVHSNANTYLQWFQQRPGQSPRLLIYKVSNRFSGVPDRFSGSGSGTDFTLKISRVEAEDVGVYYCFQVSHVPYTFGQGTKLEIK | – | Kd [3]: 14 nM; koff [4]: 2.3e-05 s⁻¹; Kd [5]: 0.204 nM; kon [6]: 113000 M⁻¹ s⁻¹
17 | hGPC3-1 HALC (antibody, V domains shown, Kabat positions) VH: QVQLVQSGAEVKKPGASVKVSCKASGYTFTDYEMHWVRQAPGQGLEWIGGIDPETGGTAYNQKFKGRATLTADTSTSTAYMELRSLRSDDTAVYYCARYYSFAYWGQGTLVTVSS VL: DVVMTQSPLSLPVTLGQPASISCRSSQSIVHSNGNTYLQWFQQRPGQSPKLLIYKVSNRFSGVPDRFSGSGSGTDFTLKISRVEAEDVGVYYCFQVSHVPYTFGQGTKLVMK | 63 | –
